Broadly, the Km is the substrate concentration at which the rate is half of its maximum. In general, kcat refers to the number of substrate molecules converted per active site and unit of time at saturation. The term kcat/Km denotes the second-order rate constant that governs catalysis at low substrate concentration.

In one series the target is T1, EcGadB (Escherichia coli, UniProt P69910).
T1 construct: gene gadB; recombinant, purified full-length enzyme, prepared by earlier published protocol; PLP enzyme
T1 sequence (P69910 1-466): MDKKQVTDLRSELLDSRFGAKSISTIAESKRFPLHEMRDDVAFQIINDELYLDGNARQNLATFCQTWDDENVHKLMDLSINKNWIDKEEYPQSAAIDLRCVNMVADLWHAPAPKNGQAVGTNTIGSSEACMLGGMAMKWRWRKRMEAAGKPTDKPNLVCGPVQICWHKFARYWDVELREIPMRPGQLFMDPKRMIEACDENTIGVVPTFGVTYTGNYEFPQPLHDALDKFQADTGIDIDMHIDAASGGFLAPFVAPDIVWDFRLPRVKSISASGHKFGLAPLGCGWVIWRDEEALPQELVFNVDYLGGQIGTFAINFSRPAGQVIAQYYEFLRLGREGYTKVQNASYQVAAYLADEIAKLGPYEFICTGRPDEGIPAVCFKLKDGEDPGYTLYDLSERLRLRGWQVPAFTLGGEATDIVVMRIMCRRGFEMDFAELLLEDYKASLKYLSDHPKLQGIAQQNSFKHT
Description: decarboxylation; GABA quantified by end-point GABase assay (NADPH at […] nm), Michaelis-Menten fit. It is filed as biochemical. To be noted: pyridine/HCl 0.2 M (0.1 M in Figure 2 legend), pH 4.6, 37 °C, 1 mM PLP, 0.1 mM DTT; 0.15-10 mM substrate.

Substrate in the series “purified protein”: N[C@@H](CCS(=O)O)C(=O)O
As to the kind of experiment: purified protein. The class given is biochemical, Escherichia coli. To be noted: pyridine/HCl 0.2 M (0.1 M in Figure 2 legend), pH 4.6, 37 °C, 1 mM PLP, 0.1 mM DTT, 3-300 mM substrate.

As for `N[C@@H](CCC(=O)O)C(=O)O` [L-Glu, L-Glutamic acid], on EcGadB, the Km turned out to be 840 ± 90 µM.

B1: EcGadB (Escherichia coli K-12) (protein)
chain: MDKKQVTDLRSELLDSRFGAKSISTIAESKRFPLHEMRDDVAFQIINDELYLDGNARQNLATFCQTWDDENVHKLMDLSINKNWIDKEEYPQSAAIDLRCVNMVADLWHAPAPKNGQAVGTNTIGSSEACMLGGMAMKWRWRKRMEAAGKPTDKPNLVCGPVQICWHKFARYWDVELREIPMRPGQLFMDPKRMIEACDENTIGVVPTFGVTYTGNYEFPQPLHDALDKFQADTGIDIDMHIDAASGGFLAPFVAPDIVWDFRLPRVKSISASGHKFGLAPLGCGWVIWRDEEALPQELVFNVDYLGGQIGTFAINFSRPAGQVIAQYYEFLRLGREGYTKVQNASYQVAAYLADEIAKLGPYEFICTGRPDEGIPAVCFKLKDGEDPGYTLYDLSERLRLRGWQVPAFTLGGEATDIVVMRIMCRRGFEMDFAELLLEDYKASLKYLSDHPKLQGIAQQNSFKHT
notes: recombinant, purified full-length enzyme, prepared by earlier published protocol; PLP enzyme
Consider B1, for which, in the series “purified protein”, the Km came out at 38240 ± 3450 µM, the kcat came to 33.9 ± 1.07 s⁻¹ and the kcat/Km was determined as 890 ± 90 M⁻¹ s⁻¹.

These data come from PMC11396700, “Synthesis and Biological Activity of Homohypotaurine Obtained by the Enzyme-Based Conversion of Homocysteine Sulfinic Acid Using Recombinant Escherichia Coli Glutamate Decarboxylase” (Molecules, 2024).
